Our source for the Km values is article doi:10.1101/764241v3.

Substrate in the series: O=c1ccn([C@@H]2O[C@H](COP(=O)(O)OP(=O)(O)O[C@H]3O[C@H](CO)[C@H](O)[C@H](O)[C@H]3O)[C@@H](O)[C@H]2O)c(=O)[nH]1
Put plainly: [3H]Gal transfer, Sep-Pak C18 scintillation counting. To be noted: donor, maltose-pNP acceptor, 2 mM MnCl2, pH 7.0, 37°C. Type of series: biochemical, Globisporangium ultimum.

B1: PuGat1 (Globisporangium ultimum DAOM BR144) (protein)
chain: MTVGTRRAAYATLITSDAYVMGVEALVYSLFKARVAFPLVVLHSSQVTQPTVAKLTRFCAPFQSSTWRISFRSVPDIGIPDEVTDRSTVHVPGWVNSGYTKLHIFAMDDFEQIVYIDADAIVLQNVDELFDRSTSFAAAPDVFPPDRFNAGVLVIRPNKQLFADLLAKAKELKSYDGGDTGFLNAFFPKWFESDAASRLPFGYNAQRTMYWLVNGKNPGYWNAVQPLKILHYSSNPKPWEDPSRKGDLEILWWQMYTESRCMSFLG
Take B1: the Km is reported as 15 µM.
